From US20130116185A1, “PHOSPHATIDYLINOSITOL 3-KINASES ACTIVITY REGULATOR INCLUDING THE FIFTH ZINC FINGER DOMAIN OF FOG2” (SNU R&DB FOUNDATION, priority 2010, published 2013)
“Also recorded” adds a separate entry of the source.

Experiments:
[1] = test system: MDA MB 231 cells; assay: Cell migration, modified Boyden chamber method; format: cell-based; conditions: transfected 24 hr, 18 hr migration, FIG. 3A
Protocol: MDA MB 231 cells were transfected with pCK-flag (control), FOG2-wt (wild type) and FOG2 mutants having modified zinc finger domain (FOG2-ZF-5-m and FOG2-ZF-6-m). The cell migration was then analyzed using the modified Boyden chamber method (Albini A et al., Cancer Res 1987 47:3239-45). Following the transfection for 24 hr, MDA MB 231 cells (1×10^5) were suspended in a serum-free medium and seeded in triplicate in the upper part of BD chamber ([…] pore size). The lower part was filled with the serum-free medium. Following the incubation at 37° C. for 18 hr, non-migrating cells positioned at the upper surface of filters were cleaned with a cotton swab. The migrating cells passing through the lower surface of filters were fixed with 70% ethanol and treated with the Giemsa staining solution for 50 min. Then, the cells were rinsed with water and observed under a microscope. The cell migration rate was determined by counting the number of cells present in randomly-selected six sections and the migration range was expressed as the average number of cells per a microscopic field.
MDA MB 231 cells were incubated with 4 μM Mock (control, DMSO), 4 μM ZF-5-wt-24, 4 μM ZF-5-m-24, 4 μM ZF-5-wt-20 or 4 μM ZF-3-wt-21. After treatment, the cell migration was analyzed using the modified Boyden chamber method (Albini A et al., Cancer Res 1987 47:3239-45). After 2 days of treatment, MDA MB 231 cells (1×10^5) were suspended in the serum free medium and seeded in triplicate in the upper part of BD chamber ([…] pore size). The lower part was filled with the serum free medium. Following the incubation at 37° C. for 18 hr, non-migrating cells positioned at the upper surface of filters were cleaned with the cotton swab. The migrating cells passing through the lower side surface of filters were fixed with 70% ethanol and stained using the Giemsa stain method. The cell migration rate was determined by counting the number of cells present in randomly-selected six sections and the migration range was expressed as the average number of cells per a microscopic field.

[2] = test system: MDA MB 231 cells; assay: Cell proliferation MTT assay; format: cell-based; conditions: transfected with 100 ng DNA, 3 days post-transfection, FIG. 6A
Protocol: Because the PI3K activation is critical in cell growth, the cell proliferation was analyzed to investigate the inhibitory effect of the FOG2 zinc finger domain using the MTT assay.
MDA MB 231 cells were seeded in a 96-well plate, and transfected with 100 ng DNA of pCKflag, FOG2-wt, FOG2-ZF-5-m or FOG2-ZF-6-m using Lipofectamine 2000. On 3 days post-transfection, the MTT assay was performed.
MDA MB 231 cells (2×10^3 cells) were seeded in a 96-well plate and treated with 4 μM each peptide for 3 days. After the treatment, 50 μl of MTT solution (2 mg/ml) was added to each well, incubated at 37° C. for 1 hr. Then, 150 μl of DMSO was added to each well and the absorbance value of each well was measured at 590 nm using a microplate reader.

[3] = molecular target: T1, p85α (Homo sapiens, UniProt P27986); assay: Interaction of FOG2 zinc finger domain with p85α (α-Flag immunoprecipitation, Western blot); format: binding; conditions: Hep3B cells, 2 days after transfection, FIG. 1B
T1 construct: subject to the Western blot analysis using p85α (sc-1637, Santa Cruz); endogenous in cells; host or cells: Hep3B
T1 sequence (P27986 whole entry, the tested form may be a part): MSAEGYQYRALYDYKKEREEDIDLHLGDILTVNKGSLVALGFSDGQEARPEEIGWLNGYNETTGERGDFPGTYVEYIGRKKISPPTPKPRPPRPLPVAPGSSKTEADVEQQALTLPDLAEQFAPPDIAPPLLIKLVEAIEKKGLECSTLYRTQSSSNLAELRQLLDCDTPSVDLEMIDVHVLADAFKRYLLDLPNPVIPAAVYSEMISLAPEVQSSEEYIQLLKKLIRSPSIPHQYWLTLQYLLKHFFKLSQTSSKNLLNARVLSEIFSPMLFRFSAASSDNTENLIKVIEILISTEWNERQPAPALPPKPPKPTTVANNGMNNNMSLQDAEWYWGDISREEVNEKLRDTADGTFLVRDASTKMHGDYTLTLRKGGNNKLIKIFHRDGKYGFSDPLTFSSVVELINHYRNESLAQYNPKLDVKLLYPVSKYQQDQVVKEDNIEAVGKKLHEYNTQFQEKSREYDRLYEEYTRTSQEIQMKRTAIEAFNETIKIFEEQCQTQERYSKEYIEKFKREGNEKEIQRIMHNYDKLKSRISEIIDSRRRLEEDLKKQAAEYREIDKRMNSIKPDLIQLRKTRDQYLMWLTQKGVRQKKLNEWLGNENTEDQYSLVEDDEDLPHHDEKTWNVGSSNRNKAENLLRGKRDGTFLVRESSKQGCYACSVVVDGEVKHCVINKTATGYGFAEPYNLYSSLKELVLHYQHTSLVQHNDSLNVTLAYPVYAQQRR
From the text: To reveal the region of FOG2 interacting with p85α as a subunit of PI3K, we numbered eight (8) zinc finger domains of FOG2. Then, mutated FOG2 with altered zinc finger domain (FOG-ZF-5-m and FOG-ZF-6-m) was manufactured by mutating two domains (known to interact with p85α) positioned at 413-789th amino acid residues of FOG2.
Hep3B cells were transfected with pCK-flag (control), FOG2-wt (wild type) and FOG2 mutants having modified the zinc finger domain (FOG2-ZF-5-m and FOG2-ZF-6-m). On 2 days after transfection, the lysates were obtained using the lysis buffer (20 mM Hepes (pH7.4), 100 mM NaCl, 20 mM KAc, 10 mM MgCl2, […], 1 mM Na3VO4, 5 mM NaF, 1% NPO4). The cell lysates were immunoprecipitated with the α-Flag (Sigma, A2220) and subject to the Western blot analysis using p85α (sc-1637, Santa Cruz) and α-Flag antibody (Sigma, F1804).

[4] = test system: Akt; assay: Akt phosphorylation by Western blot in transfected Hep3B cells after IGF-1 stimulation; format: cell-based; conditions: FIG. 1D
Protocol: Hep3B cells were transfected with FOG2 mutants having modified zinc finger domain to measure the effect on the Akt signaling by FOG2-ZF-5m. The Akt activity was measured by analyzed Akt phosphorylation.
Hep3B cells were transfected with pCK-flag (control), FOG2-wt (wild type) and FOG2 mutants having modified zinc finger domain (FOG2-ZF-5-m and FOG2-ZF-6-m) and stimulated with IGF-1. The expression of Akt (Cell signaling Technology, USA), pAkt (Cell signaling Technology, USA) and GAPDH(Santa cruz, USA) were measured by Western blot analysis.

[5] = molecular target: PI3K (Homo sapiens, UniProt P27986); assay: PI3K activity in Hep3B cells transfected with FOG2 constructs (p85α immunoprecipitation, 32P-ATP/PIP2 kinase assay); format: cell-based; set-up: The cell lysates were immunoprecipitated with p85α (sc-1637, Santa Cruz) and Protein G-Sepharose beads; endogenous in cells; host or cells: Hep3B
Chain of PI3K (P27986 whole entry, the tested form may be a part): as above
Protocol: To investigate the inhibitory effect to PI3K activity by FOG2 zinc finger domain, PI3K activity was analyzed using FOG2 mutants having modified zinc finger domain. Specially, it is known that IGF signaling pathway plays an important role in cancer and the increased IGF-1 level enhances the risk of various cancers in many researches.
Accordingly, the PI3K activity was increased by incubating Hep3B cells with IGF-1 and then measured when the cells were incubated with peptides having mutated FOG2 zinc finger domain.
After Hep3B cells incubation, 100 ng/ml IGF-1 (Insulin like growth factor-1) was added to the cells and incubated for 30 min.
Hep3B cells were transfected with pCK-flag (control), FOG2-wt (wild type) and FOG2 mutants having modified zinc finger domain (FOG2-ZF-5-m and FOG2-ZF-6-m). Two days later, the lysates were obtained using a lysis buffer (20 mM Hepes (pH7.4), 100 mM NaCl, 20 mM KAc, 10 mM MgCl2, 10 mM ZnCl2, 1 mM Na3VO4, 1% NPO4). The cell lysates were immunoprecipitated with p85α (sc-1637, Santa Cruz) and Protein G-Sepharose beads using the same method above. After binding to beads, the lysates were washed 2 times with the lysis buffer and one time with the wash buffer (0.1 M Tris-HCl (pH 7.4), 5 mM LiCl, and 0.1 mM Na3VO4).
For measurement of PI3K activity, 10 μl of sonicated PIP2 (1 μg/μl, Calbiochem), 10 μl of 100 mM MgCl2 and 1 μl of [-^32P]ATP (500 μCi/ml) were added to the kinase buffer (10 mM Tris-HCl (pH 7.4), 150 mM NaCl, 1 mM Na3VO4, 10 mM ZnCl2) and incubated at 37° C. for 30 min. After incubation, 20 μl of 6 N HCl was added to stop the reaction and PIP2 was extracted by treatment with 200 μl of methanol:chloroform (1:1) solution. The amount of radioactively labeled PIP2 in the extract was measured using a scintillator counter.

interaction with p85α [3]: did not
B1: FOG2-ZF-5-m: Mutated FOG2 with altered the fifth zinc finger domain (two histidine residues substituted with alanine) (protein)
chain: MSRRKQSKPRQIKRPLEDAIEDEEEECPSEETDIISKGDFPLEESFSTEFGPENLSCEEVEYFCNKGDDEGIQETAESDGDTQSEKPGQPGVETDDWDGPGELEVFQKDGERKIQSRQQLPVGTTWGPFPGKMDLNNNSLKTKAQVPMVLTAGPKWLLDVTWQGVEDNKNNCIVYSKGGQLWCTTTKAISEGEELIAFVVDFDSRLQAASQMTLTEGMYPARLLDSIQLLPQQAAMASILPTAIVNKDIFPCKSCGIWYRSERNLQAHLMYYCSGRQREAAPVSEENEDSAHQISSLCPFPQCTKSFSNARALEMHLNSHSGVKMEEFLPPGASLKCTVCSYTADSVINFHQHLFSHLTQAAFRCNHCHFGFQTQRELLQHQELHVPSGKLPRESDMEHSPSATEDSLQPATDLLTRSELPQSQKAMQTKDASSDTELDKCEKKTQLFLTNQRPEIQPTTNKQSFSYTKIKSEPSSPRLASSPVQPNIGPSFPVGPFLSQFSFPQDITMVPQASEILAKMSELVHRRLRHGSSSYPPVIYSPLMPKGATCFECNITFNNLDNYLVAKKAYCSSRWQQMAKSPEFPSVSEKMPEALSPNTGQTSINLLNPAAHSADPENPLLQTSCINSSTVLDLIGPNGKGHDKDFSTQTKKLSTSSNNDDKINGKPVDVKNPSVPLVDGESDPNKTTCEACNITFSRHETYMVHKQYYCATRHDPPLKRSASNKVPAMQRTMRTRKRRKMYEMCLPEQEQRPPLVQQRFLDVANLNNPCTSTQEPTEGLGECYHPRCDIFPGIVSKHLETSLTINKCVPVSKCDTTHSSVSCLEMDVPIDLSKKCLSQSERTTTSPKRLLDYHECTVCKISFNKVENYLAHKQNFCPVTAHQRNDLGQLDGKVFPNPESERNSPDVSYERSIIKCEKNGNLKQPSPNGNLFSSHLATLQGLKVFSEAAQLIATKEENRHLFLPQCLYPGAIKKAKGADQLSPYYGIKPSDYISGSLVIHNTDIEQSRNAENESPKGQASSNGCAALKKDSLPLLPKNRGMVIVNGGLKQDERPAANPQQENISQNPQHEDDHKSPSWISENPLAANENVSPGIPSAEEQLSSIAKGVNGSSQAPTSGKYCRLCDIQFNNLSNFITHKKFYCSSHAAEHVK
modifications: left off: small tags and cut ends
reduction of cell migration [1]: does not; also recorded: not observed
effect on cell proliferation [2]: did not influence the cell proliferation
Akt phosphorylation [4]: increased
PI3K activation by IGF-1 stimulation ([5]; 100 ng/ml IGF-1 30 min, FIG. 1C): did not inhibit PI3K activation
PI3K activity ([5]; without IGF-1 stimulation, FIG. 5A): did not inhibit PI3K activity
